Measured values published in publication PMC5673231.

Target: organic anion transporting polypeptide (OATP) 1B3 (UniProt Q9NPD5)
Sequence of UniProt Q9NPD5 (Q9NPD5 whole entry): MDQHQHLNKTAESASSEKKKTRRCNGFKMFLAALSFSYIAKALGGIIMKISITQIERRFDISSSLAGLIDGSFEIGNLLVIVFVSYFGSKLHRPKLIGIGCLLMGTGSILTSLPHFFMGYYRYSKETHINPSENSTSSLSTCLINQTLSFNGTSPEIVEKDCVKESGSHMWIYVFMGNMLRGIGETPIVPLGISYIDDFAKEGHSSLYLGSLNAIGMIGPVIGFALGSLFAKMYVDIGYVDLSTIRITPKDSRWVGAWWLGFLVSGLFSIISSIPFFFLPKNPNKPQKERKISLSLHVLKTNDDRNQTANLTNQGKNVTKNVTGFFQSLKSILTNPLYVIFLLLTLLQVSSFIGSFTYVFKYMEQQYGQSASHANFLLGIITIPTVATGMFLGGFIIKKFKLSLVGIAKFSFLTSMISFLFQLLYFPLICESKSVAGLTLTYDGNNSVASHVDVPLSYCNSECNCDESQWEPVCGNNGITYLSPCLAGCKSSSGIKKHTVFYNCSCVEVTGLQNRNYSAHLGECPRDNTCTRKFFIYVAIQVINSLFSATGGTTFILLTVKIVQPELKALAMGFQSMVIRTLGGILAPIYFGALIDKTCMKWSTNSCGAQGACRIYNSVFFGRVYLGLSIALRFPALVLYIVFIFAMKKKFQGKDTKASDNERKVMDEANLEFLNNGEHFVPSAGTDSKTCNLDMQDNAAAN

Km (called the affinity constant) of CCK-8 transport, [^3H]CCK-8 accumulation 0.1-40 uM, 3 min, in HEK293-OATP1B3 cells pretreated with bortezomib (50 nM, 7 h), Michaelis-Menten fit: 4.9 µM
Km (called the affinity constant) of CCK-8 transport, [^3H]CCK-8 accumulation 0.1-40 uM, 3 min, in HEK293-OATP1B3 cells pretreated with vehicle control, Michaelis-Menten fit: 5.8 µM
Substance: octapeptide cholecystokinin 8
